The target in assay [1] is hexasome: (H3-H4)2 tetramer with one H2A-H2B dimer on 170 bp Widom 601 DNA (Xenopus laevis) (UniProt P84233). In words: FRET or BRET; single-molecule FRET with multi-parameter fluorescence detection, dynPDA and trace analysis, global four-state kinetic model; IβIα-wt nucleosomes on 170 bp Widom 601 DNA (dyes on the DNA), 20 pM labelled, total concentration varied with unlabelled nucleosomes; 150 mM NaCl, TE buffer pH 7.5, 1 mM ascorbic acid, 0.01% Nonidet P40; hexasome and tetramer stand on the DNA. A general note: In BRET a luciferase serves as donor, and the signal depends on an acceptor being close.

Assay [2] has as its target (H3-H4)2 tetramer (wild type Xenopus laevis recombinant histones) (Xenopus laevis) (UniProt P84233). Described as above.

By Kd is commonly meant a measure of binding affinity in units of concentration.

Consider “H2A-H2B dimer (wild type Xenopus laevis recombinant histones) (from UniProt P06897 2-120; P02281 2-126) (complex)”, for which, in assay [1], the Kd was found to be 0.039 nM and the relaxation time tR of octasome/hexasome exchange (estimated for [H2A-H2B] ≈10 pM) was less than 300 s. In addition, in assay [2], the dissociation constant (Kd) is more than 0.002 nM and the relaxation time tR of hexasome/tetrasome exchange (estimated for [H2A-H2B] ≈10 pM) was more than 10000 s.

Source of the values: publication PMC6219519.
